Experimental data published in the nanobody polyreactivity screen of Harvey et al. (2022).

Test: yeast display, Sf9 membrane polyspecificity reagent, FACS + sequencing; frameworks hold sequencing errors
In short: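 Galactose induction of a Saccharomyces cerevisiae BJ5465 synthetic nanobody display library ran 36–48 hours. The cells were then stained for 1 hour at 4 °C with 10% biotinylated, detergent-solubilized Sf9 membrane reagent, pulled down on streptavidin microbeads and FACS-sorted into low and high (top ~1%) gates on expression and reagent-binding fluorescence. Labels for polyreactivity follow the gate of origin.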

| Sequence | polyreactivity (PSR sort gate) |
| --- | --- |
| QVQLVESGGGLVQAGGSLRLSCAASGRTSGYYAMGWYRQAPGKERELVAAISGGDSTNYADSVKGRFTFSRDNAKNTVYLQMNSLKPEDTAVYYCAKRTRVSWVPTFDYWGQGTQGTVSS | low polyreactivity |
| QVQLVESGGGLVQAGGSLRLSCAASGFTFGPYDMGWYRQAPGKERELVAAITDSSGSTHYADSVKGRFTISRDNAKNTVYLQMNSLKPEDTAVYYCAAVVYYTFDYWGQGTQVTVSS | low polyreactivity |
| QVQLVESGGGLVQAGGSRSLSCAASGSIFLVNAMGWYRQAPGKERELVAAINSGGSTYYADSVKGRFTISRDNAKNTVYLQMNSLKPEDTAVYYCAADFWLKVWQDTDYDYDYWGQGTQVTVSS | low polyreactivity |
| QVQLVESGGRLVQGRGSLRLSCAASGRTFHIYDIGWYRQAPGKERELVAAIRGRSGSTYYADSVKGRFTISRDNAKNNDYLQMNSLTPEDNAVYYCAAENLGRFVASEYDYWGQGTQVTVSS | high polyreactivity |
| QVQLVESGGGLVQAGGSLRLSCAASGRIFDVYAMGWYRQAPVKERELVAAITWRGGTTYYADSVKGRFTISRDNAKNTVYLQMHTLKPEDTAVYYCNADLVYYSKHQKYSYDYWGQGTQVTVSS | low polyreactivity |
| QVQLVESGGGLVQAGGSLRLSCAASGRIFSRYAMGWYRQAPGKERELVASIRITGSTYYADSVKGRFTISRDNAKTTVYLQMNSLKPEDTAVYYCAAYQYRLGNIRLNYWGQGTQVTVSS | high polyreactivity |
| QDQLVESGGGLVQAGGSLRLSCAASGFTFAENAMGWYRQATGKEGELVAAISGSGGSTYYADSVKGRFTISRDNAKNTVYLQMNSLKPEDTAVYYCAADKPRPQYTDDDYWGQGTQVTVSS | high polyreactivity |
| QVQLVESGGGLVQAGGSLRLSCAASGRIFRRYVMVWSRQAPGKERELVARIRIRDSNTYYADSVKGRFTISRDNAKNTVYLQMNSLKPEDTAVYYCAVVANYVYSKYDYWGQGTLVTVSS | high polyreactivity |
| QVQLVESGGGLVQAGGSLRLSCAASGFIFSSYAMGWYRQAPGKEREFVASISASGGTTYYADSVKGRFTISRDNAKNTVYLQMNSLKPEDTAVYYCAAPWLDAEDYWGQGTQVTVSS | high polyreactivity |
| QVRLVESGGGLVQAGGSLRLSCAASGSILYRYTMGWYRQAPGKETELVAAITWSDGSTYYSDSVKGRFTISRDNAKNTVYLQKNSLKPEDTAVYDCAADLWLDVDHEWSGGDYWGQGTQVTVSS | low polyreactivity |
| QVQLVESGGGLVQAGGSLRLSCAASGSIFSQYAMGCYREAPGKERELVAAISSSGDSTNYADSVKGRFTISRDNAKNTVYLQMNSLKPEDTGVYDCAADPYYFYIWYWWPSFDYWGQGTQVTVSS | low polyreactivity |
| QVQLVESGGGLLQAGGSLRLSCAASGRTFHTYAMGWYRHAPGKERELVAAISRSGGSTYYADSVKGRFTISRDNAMNPVYLQMNSLKPEDTAVYYCADTAGYWGQGTQVTVSS | high polyreactivity |
| QVQLVESGGGLVQAGGSLRLSCAASGSIFDYYTMGWYRQAPGKERELVATIRSGDSTNYADSVKGRFTISRDNAKNTVYLQMNSLIPEDTAVYYCAADDGAYPTLYDYWGQGTQVTVST | low polyreactivity |
| QVQLVESGGGLVQAGGSLRLSCAASGFTFPYNAMGWYRQAPVTERELVAAMSRGGGRTYYADSVKGRFTISRDNAKNTVNLQMNSLKPEDTAVYYCAKSPGQDTPYPYGYWGQGTQETVSS | high polyreactivity |
| QVQLVESGGGLVQAGGSLRLSCAASGSTIGGYAMGWYRQAPGKERELVAAISWDDVRTYYADSVKGRFTISRDNAKNTVYLLMNSLKPEDTAVYYCNTDGLIAIRGLWWVEYDYWGQGTQVTVSS | low polyreactivity |
| QVQLVESGGGLVQAGGSLRLSCAASGRTFERNTMRWYRQAPGKERELVAAISYDGGSTYYADSVKGRFTISRDNAKNTVYFQLNSLKPEDRAVYYCNAGGSEIYRSPFDYWGQGTQVTVSS | low polyreactivity |

| Sequence | polyreactivity (PSR sort gate) |
| --- | --- |
| QVQLVESGGGLVQAGGILRLSCAASGGIFNRYSKGWYRQAPGKERELVAGITRSGGSTSYADSVKGRFTISRDNAKNTVYLQMNSLKPEDTAVYFCKKVAYYASSSSYRFGAYGYWGQGSQVTVSS | high polyreactivity |
| QVQLVESGGGLVQAGGSLRLSCAASGSTFDAYAMGWYRQAPGKERELVAPISWSGGGTTYADSVKGRFTISRDNAKNTVYLLMNSLKPEDTAVYYCNAKGSVRDFQDTLRPEGDYWGQGTQVTVSS | low polyreactivity |
| QVQLVESGGGLVQAGGSLRLSCAASGSIFYRYTMGWYRQARGKERELVAAISSDGGSTYYADSVKGRFTISRDNAKKTVYLQMNSLKPEDTAVYYCAAGQDGHSDWGQGTQVTVSS | low polyreactivity |
| QVQLVESGGGLVQAGGSLRLSCAASGFTISPYAMGWYRQAPGKERELVAVISKSSTRTYYADSVKGRFTISRDTAKNTVYLQMNSLKPEDTAVYYCNAGWNFVSGYYYWGQGTQVTVSS | high polyreactivity |
| QVQLVESGGGLVQAGGSLRLSCAASGAIFFSYAMGWYRQAPGKERELVAAIRTNGGTTYYADSVKGRFTISRDNAKNTVYLQMNSLKPEDTAVYYCAALPGGYYDRGEYDYWGQGTQVTVSS | low polyreactivity |
| QVHHVESAGRLVQAGGILRLICPASGFTFGHYVMGWYRQEPGKERELLAAITLSGGGTYYADSVKGRFTISRDNAKNTGYLQMNSLKPQDTAVYYCAAVGGDHAKITYSRYKVDYWGQGTQVTVSS | low polyreactivity |
| QVQLVESAVGLVQAGGSLRLSCAASGGIIAYNAMGWYRQAPGKERELVAAISSSGGRTYYADSVKGRFTISRDNAKNTVYLQMNSLKPEDTAVYYCAADITFRYYYWGQGTQVTVSS | high polyreactivity |
| QVQLVESGGGLVQAGGSLRLICAASGRIFWSNAMRWSRQAPGKVSELVAAISSGGSTYYADSVKGRFTISRDNAKNTVYLQMNRLKPEDTAVYYCATRGIQRGFSRWGGLDYWGQGTLVTVSS | low polyreactivity |
| QVQLVETGGGLVQAGGSLRLSCAASGRTFRWYAMGWYRQAPGKERELVADISSVGSTDYADSVKGRFTISRDNAKNTVYLQMNSLKPEDTAVYYCAADFSPRRYHNRSFGYWGQGTQVTVSS | low polyreactivity |
| QVQLVESGGGLVQAGGSLRLSCAASGIIFGGYAMGWYRQAPGKERELVAAITRSGGSTYYADSVKGRFTISRDNAKNTVYLQMNSLKPEDTAVYYCAAVPYRKHSYPFRLNYWGQGTQVTVSS | high polyreactivity |
| QVQLVESGGGLVQAGGSLRLSSAASGRTSLAYAMGWYRQAPGKERELVAVITSGGNTNYADSVKGRFTISRDNAKNTVYLQMNSLKPEDTAVYYCNKKKRWQWYSESVLDYLGFYSWGQGTQVTVSS | low polyreactivity |
| QVQLVESGGGLVQAGGSLRLSCAASGITFRTNAMGWYRQAPGKERDLVAAIRTGYSTYYADSVKGRFTISRDNAKNPVYLQMNSLKPEDTAVYYCNAVRYSPVFRRKYDYWGQGTQVTVSS | high polyreactivity |
| QVQHVESAGGLVQAGGSLSLSCAASGSIFNLYAMGWYRQAPGKERELVAAIRWDGGSTYNADSVKGRFTISRDTAKNTVYLQMNSLKPEDTAVYYCAAETVYFRLLILDYWGQGTQVTVSS | high polyreactivity |
| QVQLVESGGGLVQAAGSLRLSCASSGSIIFYYAMGWYRQAPGNEREFVAAITRSGVRTYYADSVKGRFTISRDNAKNTVYLQMNSLIPEDTAVYYCIAEAYPYWYRGASREYDYWGQGTQVTVSS | low polyreactivity |
| QVQLVESGGGLVQAGGRLRLSCAASGITSLDNAMGWYRQAPGKQRELVAGIKSGGSTNYADSVKGRFTISRDNAKNTVYLQMNSLKPEDTAVYYCAADDFIGSGRLVARGRYDYWGQGTQVTVSS | low polyreactivity |
